Laboratory results: US20210292393A1 (published 2021)
Residue numbers refer to the chain shown, from its start.

B1: antibody 559 (antibody, V domains shown)
VH: QVQLQESGPGLVKLSETLSLTCTVSGYSISSGYYWGWIRQPPGKGLEWIGSIYHSGSTYYNPSLKSRVTISVDTSKNQFSLKLSSVTAADTAVYYCAREETLGSSWYESYIDYWGQGTLVTVSS
VL: SYVLTQPPSVSVAPGKTARITCGGNNIGSKSVHWYQQKPGQAPVLVIYYDSDRPSGIPERFSGSNSGNTATLTISRVEAGDEADYYCQVWDSSSDHPRVFGGGTKLTVL
B2: antibody 528 (antibody, V domains shown)
VH: QVQLVQSGAEVKKPGSSVKVSCKASGGTFNSNSISWVRQAPGQGLEWMGRIIPILDITMYARKFQGRVTISADKSTGTAYMDLSSLRSEDTAVYYCATDRDDSSGDYYYGMDVWGQGTTVTVSS
VL: DIQMTQSPSSLSASVGDRVTITCRASLSISNYLNWYQQKPGKAPNLLIYAASTLQSGVPSRFSGSGSGTDFTLTISSLQPEDFATYYCQQTYITRWTFGQGTKVEIK
notes: also called mAb 528
B3: antibody 506 (antibody, V domains shown)
VH: QITLKESGPTLVKPTQTLTLTCTFSGFSLSTSGVGVGWIRQPPGKALEWLALIYWDDDKRYSPSLKSRLTITKDTSKNQVVLTMTNMDPVDTATYYCAHHSLSSIFDYWGQGTLVTVSS
VL: QSALTQPASVSGSPGQSITISCTGTSSDVGDYNYVSWYQQHPGKAPKLMIYEVSNRPSGVSNRFSGSKSGNTASLTISGLQAEDEADYYCSSYTSSSTVFGGGTKLTVLG
B4: antibody 535 (antibody, V domains shown)
VH: EVQLVESGGGLIQPGGSLRLSCAASGFTVSSNYMSWVRQAPGKGLEWVSVIYSGGSTYYADSVKGRFTISRDNSKNTLYLQMNSLRAEDTAVYYCARDLTEEGDFWSASSYRRYYYYGMDVWGQGTTVTVSS
VL: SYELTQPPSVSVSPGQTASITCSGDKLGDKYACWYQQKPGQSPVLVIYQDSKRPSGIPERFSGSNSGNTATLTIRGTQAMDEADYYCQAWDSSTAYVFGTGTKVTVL
B5: antibody 501 (antibody, V domains shown)
VH: QVQLVQSGAEVKKPGASVKVSCKASGYTFTSYYVHWVRQAPGQSLEWMGVISPSTGSTTYAQNFQGRVTMTRDTSTTTVYMELSSLRSEDTAVYYCARDDYYDSTRYFDLWGRGTLVTVSS
VL: QSALTQPASVSGSPGQSISFSCTGTSSDIGAYNYVSWYQQHPGRAPKLMIYDVGNRPSGVSNRFSGSKSGNTASLTISGLQAEDEADYYCSSYTSSSTQVFGTGTKVTVL
B6: antibody 513 (antibody, V domains shown)
VH: QVQLVESGGGVVQPGRSLRLSCAASGFTFSSYAMHWVRQAPGKGLEWVAVISYDGSNKYYADSVKGRFTISRDNSKNTLYLQMNSLRAEDTAVYYCARAGSGSYYNWFDPWGQGTLVTVSS
VL: QSALTQPASVSGSPGQSITISCTGTSSDVGGYNYVSWYQQHPGKAPKLMIYEVSNRPSGVSNRFSGSKSGNTASLTISGLQAEDEADYYCSSYTSSSTPYVFGTGTKVTVL
B7: antibody 557 (antibody, V domains shown)
VH: B6 VH with A99M, G100Y, Y105R, N106G, W107G, P110Y
VL: not shown
B8: antibody 520 (antibody, V domains shown)
VH: QVQLVESGGGVVQPGRSLRLSCAASGFTFSSYAMHWGRQAPGKGLEWVAVISYDGSNKYYADSVKGRFTISRDNSKNTLYLQMNSLRAEDTAVYYCARDGGSGWLLVGNWFDPWGQGTLVTVSS
VL: B6 VL with E52D, S97I, P99L
notes: also called mAb 520
B9: antibody 558 (antibody, V domains shown)
VH: B6 VH with A99G, G100Q, S101G, S103G, N106Y, W107G, F108M, P110V, L116T
VL: B6 VL with E52D, P99L
B10: antibody 518 (antibody, V domains shown)
VH: B6 VH with R98K, A99P, G100Y, Y105W, N106D, W107A, P110I, L116M
VL: not shown
B11: antibody 552 (antibody, V domains shown)
VH: QVQLVQSGAEVKKPGSSVKVSCKASGGTFSSYGISWVRQAPGQGLEWMGRIIPILGIANYAQKFQGRVTITADKSTSTAYMELSSLRSEDTAVYYCARAVYAAGDDDYYYYYGMDVWGQGTTVTVSS
VL: SYELTQPPSVSVSPGQTARITCSGDALPKQYAYWYQQKPGQAPVVVIYKDSDRPSGIPERFSGSSSGTTVTLTISGVQAEDEADYYCQSADSSGTYQVFGTGTKVSVL
B12: antibody 500 (antibody, V domains shown)
VH: QVQLVESGGGVVQPGRSLRLSCAASGFTFSSYAMHWVRQAPGKGLEWVAVISYDGSNKYYADSVKGRFTISRDNSKNTLYLQMNSLRAEDTAVYYCAKSRDGYKLFDIWGQGTMVTVSS
VL: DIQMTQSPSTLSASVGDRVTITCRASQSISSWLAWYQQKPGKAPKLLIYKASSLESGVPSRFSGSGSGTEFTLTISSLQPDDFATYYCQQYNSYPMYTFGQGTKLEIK
notes: also called mAb 500
B13: antibody 530 (antibody, V domains shown)
VH: EVQLVESGGGLVQPGGSLRLSCAASGFTFSSYWMSWVRQAPGKGLEWVANIKQDGSEKYYVDSVKGRFTISRDNAKNSLYLQMNSLRAEDTAVYYCAREPQLWSEYYFDYWGQGTLVTVSS
VL: DIQMTQSPSSLSASVGDRVTITCRASQGISSWLAWYQQKPEKAPKSLIYAASSLQSGVPSRFSGSGSGTDFTLTISSLQPEDFATYYCQQYNSYPPTFGQGTRLEIK
notes: also called mAb 530
B14: antibody 554 (antibody, V domains shown)
VH: QVQLVESGGGVVQPGRSLRLSCAASGFTFSSYAMHWVRQAPGKGLEWVAVISYDGSNKYYADSVKGRFTISRDNSKNTLYLQMNSLRAEDTAVYYCARPQGGNYYYYGMDVWGQGTTVTVSS
VL: B13 VL with L11V, E41G, S46L, Y91A, Y94F, P96L, Q100G, R103K, L104V
B15: antibody 525 (antibody, V domains shown)
VH: QVQLVESGGGVVQPGRSLRLSCAASGFTFSSYAMHWVRQAPGKGLEWVTVISYNGRNKYYADSVKGRFTISRDNSKNTLYLQMNSLRAEDTAVYWCAREGLGAIVVGLDYWGQGTLVIVSS
VL: not shown
B16: antibody 515 (antibody, V domains shown)
VH: EVQLVESGGGLVKPGGSLRLSCAASGFTFSSYSMNWVRQAPGKGLEWVSSISSSSSYIYYADSVKGRFTISRDNAKNSLYLQMNSLRAEDTAVYYCASIAAAGTLYYYYGMDVWGQGTTVTVSS
VL: not shown
B17: antibody 502 (antibody, V domains shown)
VH: QVQLVQSGAEVKKPGASVKVSCKASGYTFTSYYMHWVRQAPGQGLEWMGIINPSGGSTSYAQKFQGRVTMTRDTATSTVYMELSSLRSEDTAVYYCARGGGQISMIIVVMDDAFDIWGQGTMVTVSS
VL: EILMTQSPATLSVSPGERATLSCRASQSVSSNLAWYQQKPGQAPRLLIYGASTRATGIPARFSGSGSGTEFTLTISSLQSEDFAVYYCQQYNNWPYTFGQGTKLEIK

Target: T1, SARS-CoV-2 spike protein (SARS-CoV-2, UniProt P0DTC2 14-1208)
T1 construct: also called SARS-CoV-2 S protein; antigen of interest
Test: HT-SPR, Carterra LSA; mAb coupled to chip, antigen injected; 1:1 fit

Row | Binder | Kd | koff | kon
1 | B1 | 32.2 nM | 0.000631 s⁻¹ | 19600 M⁻¹ s⁻¹
2 | B2 | 0.509 nM | 0.000285 s⁻¹ | 560000 M⁻¹ s⁻¹
3 | B3 | 0.523 nM | 0.00021 s⁻¹ | 401000 M⁻¹ s⁻¹
4 | B4 | 0.395 nM | 4.15e-05 s⁻¹ | 105000 M⁻¹ s⁻¹
5 | B5 | 8.78 nM | 0.000261 s⁻¹ | 29800 M⁻¹ s⁻¹
6 | B6 | 0.0996 nM | 2.62e-05 s⁻¹ | 263000 M⁻¹ s⁻¹
7 | B7 | 0.144 nM | 3.35e-05 s⁻¹ | 233000 M⁻¹ s⁻¹
8 | B8 | ≤ 0.229 nM | ≤ 1e-05 s⁻¹ | 43600 M⁻¹ s⁻¹
9 | B9 | 0.237 nM | 8.94e-05 s⁻¹ | 378000 M⁻¹ s⁻¹
10 | B10 | 0.0685 nM | 2.75e-05 s⁻¹ | 401000 M⁻¹ s⁻¹
11 | B11 | 0.0393 nM | 1.01e-05 s⁻¹ | 258000 M⁻¹ s⁻¹
12 | B12 | 0.43 nM | 0.000114 s⁻¹ | 266000 M⁻¹ s⁻¹
13 | B13 | 2.19 nM | 0.000209 s⁻¹ | 95400 M⁻¹ s⁻¹
14 | B14 | 0.129 nM | 3.5e-05 s⁻¹ | 271000 M⁻¹ s⁻¹
15 | B15 | 0.107 nM | 3.94e-05 s⁻¹ | 367000 M⁻¹ s⁻¹
16 | B16 | 44.2 nM | 0.00134 s⁻¹ | 30200 M⁻¹ s⁻¹
17 | B17 | 2.49 nM | 0.000269 s⁻¹ | 108000 M⁻¹ s⁻¹
